Experiments:
[1] = molecular target: the molecule itself; test: native gel or EMSA; 4-16% Native-PAGE gel stained with coomassie
[2] = molecular target: the molecule itself; test: glycerol gradient ultracentrifugation; 5-40% glycerol gradient, 35 mM sodium phosphate buffer, 300 mM NaCl, 1 mM DTT, 4°C, 15 hr; tetramer to dimers
[3] = molecular target: taxol-stabilised microtubules; test: co-sedimentation; microtubule sedimentation, 15 nM tetrameric hKif15 with 30 nM dimeric hTpx2, AMP-PNP, 35 mM sodium phosphate buffer pH 7.0, 1 mM MgCl2, 1 mM EGTA, 1 mM DTT, 20 min at room temperature; details: both partners purified
Chain of taxol-stabilised microtubules (chain, as listed by the source, chain 1 of 2): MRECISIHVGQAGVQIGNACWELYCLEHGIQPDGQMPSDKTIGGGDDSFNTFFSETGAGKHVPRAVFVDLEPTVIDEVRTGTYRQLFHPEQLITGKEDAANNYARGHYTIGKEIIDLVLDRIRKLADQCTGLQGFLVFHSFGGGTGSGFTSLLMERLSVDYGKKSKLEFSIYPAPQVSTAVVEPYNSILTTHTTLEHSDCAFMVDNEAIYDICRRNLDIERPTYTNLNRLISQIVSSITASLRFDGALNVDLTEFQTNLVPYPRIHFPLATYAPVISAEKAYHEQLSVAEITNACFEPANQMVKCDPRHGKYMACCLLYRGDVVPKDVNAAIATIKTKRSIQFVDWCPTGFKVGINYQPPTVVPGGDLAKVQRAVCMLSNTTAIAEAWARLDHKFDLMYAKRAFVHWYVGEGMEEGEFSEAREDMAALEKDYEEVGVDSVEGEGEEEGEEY
Chain of taxol-stabilised microtubules (chain, as listed by the source, chain 2 of 2): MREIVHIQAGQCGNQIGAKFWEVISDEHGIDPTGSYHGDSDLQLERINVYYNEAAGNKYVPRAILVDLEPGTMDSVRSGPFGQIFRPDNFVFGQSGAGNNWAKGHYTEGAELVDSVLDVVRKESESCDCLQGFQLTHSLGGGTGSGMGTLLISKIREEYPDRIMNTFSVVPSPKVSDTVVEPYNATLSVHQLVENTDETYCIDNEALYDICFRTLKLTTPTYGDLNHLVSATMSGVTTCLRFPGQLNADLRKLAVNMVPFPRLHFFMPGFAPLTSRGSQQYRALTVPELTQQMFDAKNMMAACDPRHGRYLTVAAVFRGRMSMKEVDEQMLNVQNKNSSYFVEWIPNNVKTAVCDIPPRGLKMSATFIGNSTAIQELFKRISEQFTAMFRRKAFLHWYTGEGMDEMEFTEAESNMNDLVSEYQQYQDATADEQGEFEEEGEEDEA

[4] = molecular target: the molecule itself; test: glycerol gradient ultracentrifugation; 5-40% glycerol gradient, 35 mM sodium phosphate buffer, 0-150 mM NaCl, 1 mM DTT, 4°C, 15 hr; apparent sedimentation coefficients

Binder	stoichiometry N [1]	stoichiometry N [2]	KD with 30 nM dimeric hTpx2 [3] [nM]	stoichiometry N [4]
Full-length human His6-Kif15 (natural protein, UniProt Q9NS87 1-1388, looked up, Kinesin-12 Kif15 (hKlp2), human; complete ORF amplified from a cDNA library of hTERT-RPE1 cells; predicted molecular weight of His6-hKif15 164.8 kDa; A TEV cleavage site lies between His6 and the ORF (His6/TEV element of p11 in a modified pIEx/Bac1 vector); no cleavage is described; Tetramer at physiological ionic strength, dimer at 300 mM NaCl; also called hKif15; His6-hKif15; source: insect SF9 …) MAPGCKTELRSVTNGQSNQPSNEGDAIKVFVRIRPPAERSGSADGEQNLCLSVLSSTSLRLHSNPEPKTFTFDHVADVDTTQESVFATVAKSIVESCMSGYNGTIFAYGQTGSGKTFTMMGPSESDNFSHNLRGVIPRSFEYLFSLIDREKEKAGAGKSFLCKCSFIEIYNEQIYDLLDSASAGLYLREHIKKGVFVVGAVEQVVTSAAEAYQVLSGGWRNRRVASTSMNRESSRSHAVFTITIESMEKSNEIVNIRTSLLNLVDLAGSERQKDTHAEGMRLKEAGNINRSLSCLGQVITALVDVGNGKQRHVCYRDSKLTFLLRDSLGGNAKTAIIANVHPGSRCFGETLSTLNFAQRAKLIKNKAVVNEDTQGNVSQLQAEVKRLKEQLAELASGQTPPESFLTRDKKKTNYMEYFQEAMLFFKKSEQEKKSLIEKVTQLEDLTLKKEKFIQSNKMIVKFREDQIIRLEKLHKESRGGFLPEEQDRLLSELRNEIQTLREQIEHHPRVAKYAMENHSLREENRRLRLLEPVKRAQEMDAQTIAKLEKAFSEISGMEKSDKNQQGFSPKAQKEPCLFANTEKLKAQLLQIQTELNNSKQEYEEFKELTRKRQLELESELQSLQKANLNLENLLEATKACKRQEVSQLNKIHAETLKIITTPTKAYQLHSRPVPKLSPEMGSFGSLYTQNSSILDNDILNEPVPPEMNEQAFEAISEELRTVQEQMSALQAKLDEEEHKNLKLQQHVDKLEHHSTQMQELFSSERIDWTKQQEELLSQLNVLEKQLQETQTKNDFLKSEVHDLRVVLHSADKELSSVKLEYSSFKTNQEKEFNKLSERHMHVQLQLDNLRLENEKLLESKACLQDSYDNLQEIMKFEIDQLSRNLQNFKKENETLKSDLNNLMELLEAEKERNNKLSLQFEEDKENSSKEILKVLEAVRQEKQKETAKCEQQMAKVQKLEESLLATEKVISSLEKSRDSDKKVVADLMNQIQELRTSVCEKTETIDTLKQELKDINCKYNSALVDREESRVLIKKQEVDILDLKETLRLRILSEDIERDMLCEDLAHATEQLNMLTEASKKHSGLLQSAQEELTKKEALIQELQHKLNQKKEEVEQKKNEYNFKMRQLEHVMDSAAEDPQSPKTPPHFQTHLAKLLETQEQEIEDGRASKTSLEHLVTKLNEDREVKNAEILRMKEQLREMENLRLESQQLIEKNWLLQGQLDDIKRQKENSDQNHPDNQQLKNEQEESIKERLAKSKIVEEMLKMKADLEEVQSALYNKEMECLRMTDEVERTQTLESKAFQEKEQLRSKLEEMYEERERTSQEMEMLRKQVECLAEENGKLVGHQNLHQKIQYVVRLKKENVRLAEETEKLRAENVFLKEKKRSES	4	2	490	–
Full-length human His6-Kif15-eGFP (natural protein, UniProt Q9NS87 1-1388, looked up, Kinesin-12 Kif15 (hKlp2), human; complete ORF from a cDNA library of hTERT-RPE1 cells, eGFP inserted via AscI/NotI behind the ORF; His6/TEV element before the ORF as in m1; also called hKif15-eGFP; His6-hKif15-eGFP; source: insect SF9 cells (baculovirus), purified (SP-sepharose cation exchange, then Talon/Co-NTA); not shown: His6, N-terminal, kept; eGFP, C-terminal, kept) MAPGCKTELRSVTNGQSNQPSNEGDAIKVFVRIRPPAERSGSADGEQNLCLSVLSSTSLRLHSNPEPKTFTFDHVADVDTTQESVFATVAKSIVESCMSGYNGTIFAYGQTGSGKTFTMMGPSESDNFSHNLRGVIPRSFEYLFSLIDREKEKAGAGKSFLCKCSFIEIYNEQIYDLLDSASAGLYLREHIKKGVFVVGAVEQVVTSAAEAYQVLSGGWRNRRVASTSMNRESSRSHAVFTITIESMEKSNEIVNIRTSLLNLVDLAGSERQKDTHAEGMRLKEAGNINRSLSCLGQVITALVDVGNGKQRHVCYRDSKLTFLLRDSLGGNAKTAIIANVHPGSRCFGETLSTLNFAQRAKLIKNKAVVNEDTQGNVSQLQAEVKRLKEQLAELASGQTPPESFLTRDKKKTNYMEYFQEAMLFFKKSEQEKKSLIEKVTQLEDLTLKKEKFIQSNKMIVKFREDQIIRLEKLHKESRGGFLPEEQDRLLSELRNEIQTLREQIEHHPRVAKYAMENHSLREENRRLRLLEPVKRAQEMDAQTIAKLEKAFSEISGMEKSDKNQQGFSPKAQKEPCLFANTEKLKAQLLQIQTELNNSKQEYEEFKELTRKRQLELESELQSLQKANLNLENLLEATKACKRQEVSQLNKIHAETLKIITTPTKAYQLHSRPVPKLSPEMGSFGSLYTQNSSILDNDILNEPVPPEMNEQAFEAISEELRTVQEQMSALQAKLDEEEHKNLKLQQHVDKLEHHSTQMQELFSSERIDWTKQQEELLSQLNVLEKQLQETQTKNDFLKSEVHDLRVVLHSADKELSSVKLEYSSFKTNQEKEFNKLSERHMHVQLQLDNLRLENEKLLESKACLQDSYDNLQEIMKFEIDQLSRNLQNFKKENETLKSDLNNLMELLEAEKERNNKLSLQFEEDKENSSKEILKVLEAVRQEKQKETAKCEQQMAKVQKLEESLLATEKVISSLEKSRDSDKKVVADLMNQIQELRTSVCEKTETIDTLKQELKDINCKYNSALVDREESRVLIKKQEVDILDLKETLRLRILSEDIERDMLCEDLAHATEQLNMLTEASKKHSGLLQSAQEELTKKEALIQELQHKLNQKKEEVEQKKNEYNFKMRQLEHVMDSAAEDPQSPKTPPHFQTHLAKLLETQEQEIEDGRASKTSLEHLVTKLNEDREVKNAEILRMKEQLREMENLRLESQQLIEKNWLLQGQLDDIKRQKENSDQNHPDNQQLKNEQEESIKERLAKSKIVEEMLKMKADLEEVQSALYNKEMECLRMTDEVERTQTLESKAFQEKEQLRSKLEEMYEERERTSQEMEMLRKQVECLAEENGKLVGHQNLHQKIQYVVRLKKENVRLAEETEKLRAENVFLKEKKRSES	–	–	–	4

From article PMC3965211, “The Kinesin-12 Kif15 is a processive track-switching tetramer” (eLife, 2014)
